Measurements as given in publication PMC9482650, “Quantitative fragmentomics allow affinity mapping of interactomes” (Nature Communications, 2022).

What was measured:
Assay in all cases: holdup assay
Design in all cases: key: below the threshold = too weak to quantify, mostly under pKd 3.1 to 4
[1] = target: LIMK2, P53671
[2] = target: TJP1_2, Q07157
[3] = target: T1, MPP6, Q9NZW5
T1 sequence (Q9NZW5 125-219, limits assumed, looked up): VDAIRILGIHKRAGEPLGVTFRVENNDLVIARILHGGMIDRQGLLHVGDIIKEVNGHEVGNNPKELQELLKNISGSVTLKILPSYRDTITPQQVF

[4] = target: T2, MPDZ_10, O75970
T2 sequence (O75970 1624-1722, limits assumed, looked up): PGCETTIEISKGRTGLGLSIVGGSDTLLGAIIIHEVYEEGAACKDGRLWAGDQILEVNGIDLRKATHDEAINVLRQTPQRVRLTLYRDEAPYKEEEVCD

[5] = target: T3, SNTB1, Q13884
T3 sequence (Q13884 107-205, limits assumed, looked up): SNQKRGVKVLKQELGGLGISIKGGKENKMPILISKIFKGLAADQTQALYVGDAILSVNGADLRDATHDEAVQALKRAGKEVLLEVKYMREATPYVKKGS

[6] = target: HTRA1, Q92743
Chain of HTRA1, Q92743 (Q92743 360-477): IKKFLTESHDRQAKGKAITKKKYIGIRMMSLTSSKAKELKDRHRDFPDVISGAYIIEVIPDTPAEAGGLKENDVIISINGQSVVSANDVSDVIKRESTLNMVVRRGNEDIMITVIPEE

[7] = target: IL16_4, Q14005
Chain of IL16_4, Q14005 (Q14005 1229-1329): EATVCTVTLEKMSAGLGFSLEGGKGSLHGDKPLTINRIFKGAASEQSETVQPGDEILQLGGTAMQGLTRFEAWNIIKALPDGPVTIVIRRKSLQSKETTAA

[8] = target: SNX27, Q96L92
[9] = target: GRIP2_6, Q9C0E4
Chain of GRIP2_6, Q9C0E4 (Q9C0E4 648-740): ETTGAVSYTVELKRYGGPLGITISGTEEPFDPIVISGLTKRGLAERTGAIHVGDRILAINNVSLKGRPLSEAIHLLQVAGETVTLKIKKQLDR

[10] = target: T4, LNX2_3, Q8N448
T4 sequence (Q8N448 463-564, limits assumed, looked up): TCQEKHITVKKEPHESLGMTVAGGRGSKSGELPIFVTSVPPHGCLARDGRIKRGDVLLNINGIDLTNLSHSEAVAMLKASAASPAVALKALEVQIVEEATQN

[11] = target: DLG5_1, Q8TDM6
Chain of DLG5_1, Q8TDM6 (Q8TDM6 617-713): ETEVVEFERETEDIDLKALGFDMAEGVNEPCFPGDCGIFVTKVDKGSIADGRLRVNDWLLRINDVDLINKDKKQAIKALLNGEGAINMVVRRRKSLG

[12] = target: T5, PDZD2_2, O15018
T5 sequence (O15018 329-429, limits assumed, looked up): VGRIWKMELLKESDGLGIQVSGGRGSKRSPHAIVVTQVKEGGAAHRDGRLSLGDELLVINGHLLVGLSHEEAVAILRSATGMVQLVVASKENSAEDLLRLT

[13] = target: T6, ARHGEF11, O15085
T6 sequence (O15085 42-136, limits assumed, looked up): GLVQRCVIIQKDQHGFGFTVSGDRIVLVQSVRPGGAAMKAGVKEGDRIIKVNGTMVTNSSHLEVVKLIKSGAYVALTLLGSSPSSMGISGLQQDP

[14] = target: T7, RAPGEF6, Q8TEU7
T7 sequence (Q8TEU7 525-625, limits assumed, looked up): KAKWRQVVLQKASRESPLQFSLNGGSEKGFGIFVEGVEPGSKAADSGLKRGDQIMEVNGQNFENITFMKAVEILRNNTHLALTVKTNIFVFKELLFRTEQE

[15] = target: TJP2_1, Q9UDY2
Chain of TJP2_1, Q9UDY2 (Q9UDY2 24-128): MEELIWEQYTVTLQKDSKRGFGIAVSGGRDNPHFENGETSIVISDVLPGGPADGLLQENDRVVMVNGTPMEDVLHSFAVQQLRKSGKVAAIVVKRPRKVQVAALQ

[16] = target: T8, APBA2_1, Q99767
T8 sequence (Q99767 563-664, limits assumed, looked up): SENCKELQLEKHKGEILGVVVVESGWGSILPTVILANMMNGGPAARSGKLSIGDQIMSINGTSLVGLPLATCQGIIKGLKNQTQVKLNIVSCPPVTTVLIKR

[17] = target: GRIP2_3, Q9C0E4
Chain of GRIP2_3, Q9C0E4 (Q9C0E4 238-339): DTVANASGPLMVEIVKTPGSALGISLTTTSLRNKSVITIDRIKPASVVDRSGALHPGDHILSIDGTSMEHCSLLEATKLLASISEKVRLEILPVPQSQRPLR

[18] = target: SCRIB_3, Q14160
Chain of SCRIB_3, Q14160 (Q14160 999-1103): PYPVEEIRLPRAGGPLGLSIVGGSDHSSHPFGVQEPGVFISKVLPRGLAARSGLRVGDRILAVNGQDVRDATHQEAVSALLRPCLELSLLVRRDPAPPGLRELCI

[19] = target: GRASP, Q7Z6J2
Chain of GRASP, Q7Z6J2 (Q7Z6J2 96-193): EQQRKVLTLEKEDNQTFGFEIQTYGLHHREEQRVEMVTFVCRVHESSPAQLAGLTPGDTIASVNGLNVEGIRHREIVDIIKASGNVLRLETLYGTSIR

[20] = target: T9, DVL3, Q92997
T9 sequence (Q92997 244-331, limits assumed, looked up): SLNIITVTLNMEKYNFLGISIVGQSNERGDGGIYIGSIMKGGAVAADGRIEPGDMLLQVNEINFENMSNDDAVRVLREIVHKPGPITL

[21] = target: DLG1_1, Q12959
[22] = target: SCRIB_2, Q14160
Chain of SCRIB_2, Q14160 (Q14160 857-960): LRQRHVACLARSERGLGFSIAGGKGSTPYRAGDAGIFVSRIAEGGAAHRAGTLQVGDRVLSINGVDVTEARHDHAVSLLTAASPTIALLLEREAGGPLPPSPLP

[23] = target: T10, APBA2_2, Q99767
T10 sequence (Q99767 654-744, limits assumed, looked up): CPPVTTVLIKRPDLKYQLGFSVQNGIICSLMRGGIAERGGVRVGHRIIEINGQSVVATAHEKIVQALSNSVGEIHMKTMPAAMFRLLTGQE

[24] = target: IL16_3, Q14005
Chain of IL16_3, Q14005 (Q14005 1107-1207): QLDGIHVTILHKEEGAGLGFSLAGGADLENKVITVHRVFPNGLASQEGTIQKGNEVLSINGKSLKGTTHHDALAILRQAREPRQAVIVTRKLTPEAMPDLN

[25] = target: T11, DFNB31_2, Q9P202
T11 sequence (Q9P202 274-371, limits assumed, looked up): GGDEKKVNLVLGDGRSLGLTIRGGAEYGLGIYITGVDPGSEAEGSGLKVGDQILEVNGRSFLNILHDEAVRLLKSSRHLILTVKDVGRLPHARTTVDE

[26] = target: NHERF4_1, Q86UT5-2
Chain of NHERF4_1, Q86UT5-2 (Q86UT5 other isoform, or with tags, fused parts or gaps): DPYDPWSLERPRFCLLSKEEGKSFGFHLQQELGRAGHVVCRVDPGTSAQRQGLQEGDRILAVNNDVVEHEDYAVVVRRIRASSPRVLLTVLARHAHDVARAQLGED

[27] = plain residues with an end cap or a label only (N-terminal biotin on a linker: ttds)
[28] = plain residues with an end cap or a label only (N-terminal biotin on a linker: ahx)

Chain of TJP1_2, Q07157 (Q07157 181-274): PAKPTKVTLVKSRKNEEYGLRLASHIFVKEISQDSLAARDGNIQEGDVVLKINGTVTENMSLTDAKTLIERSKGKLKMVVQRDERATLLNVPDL
Chain of LIMK2, P53671 (P53671 143-248): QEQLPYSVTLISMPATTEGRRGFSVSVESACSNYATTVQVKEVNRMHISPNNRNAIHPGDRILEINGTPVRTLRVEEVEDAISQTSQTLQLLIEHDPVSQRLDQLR

Binder: DKDPHSETAL [TMIGD1, Q6UXZ0]
- pKd [1, 27]: below the threshold
- pKd [2, 27]: below the threshold
- pKd [3, 27]: below the threshold
- pKd [4, 27]: below the threshold
- pKd [5, 27]: 4.53
- pKd [6, 27]: below the threshold
- pKd [7, 27]: below the threshold
- pKd [8, 27]: 5.49
- pKd [9, 27]: below the threshold
- pKd [10, 27]: below the threshold
- pKd [11, 27]: below the threshold
- pKd [12, 27]: 3.73
- pKd [13, 27]: 4.28
- pKd [14, 27]: below the threshold
- pKd [15, 27]: below the threshold
- pKd [16, 27]: below the threshold
- pKd [17, 27]: below the threshold
- pKd [18, 27]: 5.01
- pKd [19, 27]: below the threshold
- pKd [20, 27]: below the threshold
- pKd [21, 27]: 3.77
- pKd [22, 27]: 4.23
- pKd [23, 27]: below the threshold
- pKd [24, 27]: below the threshold
- pKd [25, 27]: below the threshold
- pKd [26, 27]: 3.88

Binder: ESLLLGPSNF [SHROOM4, Q9ULL8]
- pKd [1, 28]: below the threshold
- pKd [2, 28]: below the threshold
- pKd [3, 28]: below the threshold
- pKd [4, 28]: below the threshold
- pKd [5, 28]: below the threshold
- pKd [6, 28]: below the threshold
- pKd [7, 28]: below the threshold
- pKd [8, 28]: below the threshold
- pKd [9, 28]: below the threshold
- pKd [10, 28]: below the threshold
- pKd [11, 28]: below the threshold
- pKd [12, 28]: below the threshold
- pKd [13, 28]: below the threshold
- pKd [14, 28]: below the threshold
- pKd [15, 28]: below the threshold
- pKd [16, 28]: below the threshold
- pKd [17, 28]: below the threshold
- pKd [18, 28]: below the threshold
- pKd [19, 28]: 4.36
- pKd [20, 28]: below the threshold
- pKd [21, 28]: below the threshold
- pKd [22, 28]: below the threshold
- pKd [23, 28]: below the threshold
- pKd [24, 28]: below the threshold
- pKd [25, 28]: below the threshold
- pKd [26, 28]: below the threshold

Binder: SDSSGQEYSL [KCTD3, Q9Y597]
- pKd [1, 28]: below the threshold
- pKd [2, 28]: below the threshold
- pKd [3, 28]: 3.83
- pKd [4, 28]: 3.56
- pKd [5, 28]: below the threshold
- pKd [6, 28]: 3.98
- pKd [7, 28]: below the threshold
- pKd [8, 28]: below the threshold
- pKd [9, 28]: 3.6
- pKd [10, 28]: below the threshold
- pKd [11, 28]: below the threshold
- pKd [12, 28]: below the threshold
- pKd [13, 28]: 3.98
- pKd [14, 28]: below the threshold
- pKd [15, 28]: below the threshold
- pKd [16, 28]: below the threshold
- pKd [17, 28]: below the threshold
- pKd [18, 28]: below the threshold
- pKd [19, 28]: below the threshold
- pKd [20, 28]: below the threshold
- pKd [21, 28]: below the threshold
- pKd [22, 28]: below the threshold
- pKd [23, 28]: below the threshold
- pKd [24, 28]: below the threshold
- pKd [25, 28]: below the threshold
- pKd [26, 28]: below the threshold

Binder: SKPTRRETEV [HPV35-E6, P27228]
- pKd [1, 27]: below the threshold
- pKd [2, 27]: below the threshold
- pKd [3, 27]: below the threshold
- pKd [4, 27]: below the threshold
- pKd [5, 27]: 4.68
- pKd [6, 27]: below the threshold
- pKd [7, 27]: below the threshold
- pKd [8, 27]: 4.66
- pKd [9, 27]: below the threshold
- pKd [10, 27]: below the threshold
- pKd [11, 27]: below the threshold
- pKd [12, 27]: 3.78
- pKd [13, 27]: 4.11
- pKd [14, 27]: below the threshold
- pKd [15, 27]: below the threshold
- pKd [16, 27]: below the threshold
- pKd [17, 27]: below the threshold
- pKd [18, 27]: 4.89
- pKd [19, 27]: below the threshold
- pKd [20, 27]: below the threshold
- pKd [21, 27]: 5.02
- pKd [22, 27]: 4.7
- pKd [23, 27]: below the threshold
- pKd [24, 27]: below the threshold
- pKd [25, 27]: below the threshold
- pKd [26, 27]: below the threshold

Binder: QRQARSETLV [HPV59-E6, Q81964]
- pKd [1, 27]: below the threshold
- pKd [2, 27]: below the threshold
- pKd [3, 27]: below the threshold
- pKd [4, 27]: below the threshold
- pKd [5, 27]: 3.86
- pKd [6, 27]: 4.14
- pKd [7, 27]: below the threshold
- pKd [8, 27]: 4.64
- pKd [9, 27]: below the threshold
- pKd [10, 27]: below the threshold
- pKd [11, 27]: below the threshold
- pKd [12, 27]: 4.37
- pKd [13, 27]: below the threshold
- pKd [14, 27]: below the threshold
- pKd [15, 27]: 3.81
- pKd [16, 27]: below the threshold
- pKd [17, 27]: below the threshold
- pKd [18, 27]: 3.86
- pKd [19, 27]: below the threshold
- pKd [20, 27]: below the threshold
- pKd [21, 27]: 5.05
- pKd [22, 27]: 4.18
- pKd [23, 27]: below the threshold
- pKd [24, 27]: below the threshold
- pKd [25, 27]: below the threshold
- pKd [26, 27]: below the threshold
